According to the supplement of paper PMC11246515:
± gives the standard deviation of the averaged measurements.

Test: total protein half-life in vivo (active degradation + dilution); higher = more stable protein
[1] = E. coli NCM3722 delta-clpP delta-lon delta-hslV, growth: N-lim chemostat, doubling time 6 h
[2] = E. coli NCM3722 delta-hslV, growth: N-lim chemostat, doubling time 6 h
[3] = E. coli NCM3722 delta-lon, growth: N-lim chemostat, doubling time 6 h
[4] = wild type E. coli NCM3722, growth: P-lim chemostat, doubling time 12 h
[5] = E. coli NCM3722 delta-clpP, growth: N-lim chemostat, doubling time 6 h
[6] = E. coli NCM3722 delta-smpB, growth: N-lim chemostat, doubling time 6 h
[7] = wild type E. coli NCM3722, growth: C-lim chemostat, doubling time 3 h
[8] = wild type E. coli NCM3722, growth: C-lim chemostat, doubling time 6 h
[9] = wild type E. coli NCM3722, growth: C-lim chemostat, doubling time 12 h
[10] = wild type E. coli NCM3722, growth: N-lim chemostat, doubling time 6 h
[11] = wild type E. coli NCM3722, growth: N-lim chemostat, doubling time 12 h
[12] = wild type E. coli NCM3722, growth: P-lim chemostat, doubling time 6 h

Row | Sequence | total protein half-life in vivo [1] | total protein half-life in vivo [2] | total protein half-life in vivo [3] | total protein half-life in vivo [4] | total protein half-life in vivo [5] | total protein half-life in vivo [6] | total protein half-life in vivo [7] | total protein half-life in vivo [8] | total protein half-life in vivo [9] | total protein half-life in vivo [10] | total protein half-life in vivo [11] | total protein half-life in vivo [12]
1 | MSIYKIPLPLNILEAARERITWTLNTLPRVCVSFSGGKDSGLMLHLTAELARQMGKKICVLFIDWEAQFSCTINYVQSLRELYTDVIEEFYWVALPLTTQNSLSQYQPEWQCWEPDVEWVRQPPQDAITDPDFFCFYQPGMTFEQFVREFAEWFSQKRPAAMMIGIRADESYNRFVAIASLNKQRFADDKPWTTAAPGGHSWYIYPIYDWKVADIWTWYANHQSLCNPLYNLMYQAGVPLRHMRICEPFGPEQRQGLWLYHVIEPDRWAAMCARVSGVKSGGIYAGHDNHFYGHRKILKPEHLDWQEYALLLLNSMPEKTAEHYRNKIAIYLHWYQKKGIEVPQTQQGDIGAKDIPSWRRICKVLLNNDYWCRALSFSPTKSKNYQRYNERIKGKRQEWGILCNND | 5.55 h | 6.21 h | 4.82 h | – | – | – | – | – | – | – | – | –
2 | MQRKTLLSACIALALSGQGWAADITEVETTTGEKKNTNVTCPADPGKLSPEELKRLPSECSPLVEQNLMPWLSTGAAALITALAVVELNDDDDHHHRNNSPLPPTPPDDESDDTPVPPTPGGDEIIPDDPDDTPTPPKPVSFNNDVILDKTEKTLTIRDSVFTYTENADGTISLQDSNGRKATINLWQIDEANNTVALEGVSADGATKWQYNHNGELVITGDNATVNNNGKTTVDGKDSTGTEINGNNGKVIQDGDLDVSGGGHGIDITGDSATVDNKGTMTVTDPESMGIQIDGDKAIVNNEGESTITNGGTGTQINGDDATANNNGKTTVDGKDSTGTEINGNNGKVIQDGDLDVSGGGHGIDITGDSATVDNKGTMTVTDPESIGIQVDGDQAVVNNEGESAITNGGTGTQINGDDATANNNGKTTVDGKDSTGTEIAGNNGKVIQDGDLDVSGGGHGIDITGDSATVDNKGTMTVTDPESIGIQIDGDQAIVNNEGESTITNGGTGTQINGNDATANNSGKTTVDGKDSTGTKIAGNIGIVNLDGSLTVTGGAHGVENIGDNGTVNNKGDIVVSDTGSIGVLINGEGATVSNTGDVNVSNEATGFSITTNSGKVSLAGSMQVGDFSTGVDLNGNNNSVTLAAKDLKVVGQKATGINVSGDANTVNITGNVLVDKDKTADNAAEYFFDPSVGINVYGSDNNVTLDGKLTVVSDSEVTSRQSNLFDGSAEKTSGLVVIGDGNTVNMNGGLELIGEKNALADGSQVTSLRTGYSYTSVIVVSGESSVYLNGDTTISGEFPLGFAGVIRVQDKALLEIGSGATLTMQDIDSFEHHGTRTLDLPLYFQTSVIT | – | – | – | 11 ± 1.1 h | – | – | – | – | – | – | – | –
3 | MSTVTITDLARENVRNLTPYQSARRLGGNGDVWLNANEYPTAVEFQLTQQTLNRYPECQPKAVIENYAQYAGVKPEQVLVSRGADEGIELLIRAFCEPGKDAILYCPPTYGMYSVSAETIGVECRTVPTLDNWQLDLQGISDKLDGVKVVYVCSPNNPTGQLINPQDFRTLLELTRGKAIVVADEAYIEFCPQASLAGWLAEYPHLAILRTLSKAFALAGLRCGFTLANEEVINLLMKVIAPYPLSTPVADIAAQALSPQGIVAMRERVAQIIAEREYLIAALKEIPCVEQVFDSETNYILARFKASSAVFKSLWDQGIILRDQNKQPSLSGCLRITVGTREESQRVIDALRAEQV | 3.92 ± 0.55 h | 3.41 ± 0.045 h | 3.73 ± 0.54 h | 10.9 ± 0.23 h | 3.15 ± 0.066 h | 3.535 ± 0.032 h | 3.02 ± 0.27 h | 5.38 ± 0.12 h | 9.87 ± 1.3 h | 3.247 ± 0.012 h | 4.98 ± 0.15 h | 5.32 ± 0.39 h
4 | MSELIVSRQQRVLLLTLNRPAARNALNNALLMQLVNELEAAATDTSISVCVITGNARFFAAGADLNEMAEKDLAATLNDTRPQLWARLQAFNKPLIAAVNGYALGAGCELALLCDVVVAGENARFGLPEITLGIMPGAGGTQRLIRSVGKSLASKMVLSGESITAQQAQQAGLVSDVFPSDLTLEYALQLASKMARHSPLALQAAKQALRQSQEVALQAGLAQERQLFTLLAATEDRHEGISAFLQKRTPDFKGR | 5.63 h | – | – | 6.46 h | – | – | 2.67 h | – | 6.46 h | – | – | –
5 | MDRRRFIKGSMAMAAVCGTSGIASLFSQAAFAADSDIADGQTQRFDFSILQSMAHDLAQTAWRGAPRPLPDTLATMTPQAYNSIQYDAEKSLWHNVENRQLDAQFFHMGMGFRRRVRMFSVDPATHLAREIHFRPELFKYNDAGVDTKQLEGQSDLGFAGFRVFKAPELARRDVVSFLGASYFRAVDDTYQYGLSARGLAIDTYTDSKEEFPDFTAFWFDTVKPGATTFTVYALLDSASITGAYKFTIHCEKSQVIMDVENHLYARKDIKQLGIAPMTSMFSCGTNERRMCDTIHPQIHDSDRLSMWRGNGEWICRPLNNPQKLQFNAYTDNNPKGFGLLQLDRDFSHYQDIMGWYNKRPSLWVEPRNKWGKGTIGLMEIPTTGETLDNIVCFWQPEKAVKAGDEFAFQYRLYWSAQPPVHCPLARVMATRTGMGGFSEGWAPGEHYPEKWARRFAVDFVGGDLKAAAPKGIEPVITLSSGEAKQIEILYIEPIDGYRIQFDWYPTSDSTDPVDMRMYLRCQGDAISETWLYQYFPPAPDKRQYVDDRVMS | 6.6 ± 0.085 h | 5.73 ± 0.087 h | 5.99 ± 0.14 h | 12.628 ± 0.0049 h | 6.09 ± 0.27 h | 5.86 ± 0.28 h | 3.22 ± 0.084 h | 6.205 ± 0.046 h | 12.5 ± 1.2 h | 6.44 ± 0.42 h | 12.6 ± 0.7 h | 6.71 ± 0.95 h
6 | MSFVVIIPARYASTRLPGKPLVDINGKPMIVHVLERARESGAERIIVATDHEDVARAVEAAGGEVCMTRADHQSGTERLAEVVEKCAFSDDTVIVNVQGDEPMIPATIIRQVADNLAQRQVGMATLAVPIHNAEEAFNPNAVKVVLDAEGYALYFSRATIPWDRDRFAEGLETVGDNFLRHLGIYGYRAGFIRRYVNWQPSPLEHIEMLEQLRVLWYGEKIHVAVAQEVPGTGVDTPEDLERVRAEMR | 4.88 ± 0.51 h | 4.68 ± 0.45 h | 4.949 ± 0.04 h | 12.6 ± 0.66 h | 4.7 ± 0.29 h | 4.68 ± 0.18 h | 2.84 ± 0.45 h | 6.6 ± 0.59 h | 10.8 ± 0.44 h | 4.72 ± 0.32 h | 7.79 ± 0.56 h | 5.81 ± 0.29 h
7 | MRVNLLITMIIFALIWPVTALRAAVSKTTWADAPAREFVFVENNSDDNFFVTPGGALDPRLTGANRWTGLKYTGSGTIYQQSLGYIDNGYNTGLYTNWKFDMWLENSPVSSPLTGLRCINWYAGCNMTTSLILPQTTDASGFYGATVTSGGAKWMHGMLSDAFYQYMQQMPVGSSFTMTINACQTSVNYDASSGARCKDQASGNWYVRNVTHTKAANLRLINTHSLAEVFINSDGVPTLGEGNADCRTQTIGSRSGLSCKMVNYTLQTNGLSNTSIHIFPAIANSSLASAVGAYDMQFSLNGSSWKPVSNTAYYYTFNEMKSADSIYVFFSSNFFKQMVNLGISDINTKDLFNFRFQNTTSPESGWYEFSTSNTLIIKPRDFSISIISDEYTQTPSREGYVGSGESALDFGYIVTTSGKTAADEVLIKVTGPAQVIGGRSYCVFSSDDGKAKVPFPATLSFITRNGATKTYDAGCDDSWRDMTDALWLTTPWTDISGEVGQMDKTTVKFSIPMDNAISLRTVDDNGWFGEVSASGEIHVQATWRNIN | 5.48 h | 4.45 ± 0.53 h | – | 10.9 ± 2.3 h | 4.16 ± 0.31 h | 5.38 ± 0.3 h | 2.41 h | 5.13 ± 0.19 h | 10.2 ± 0.39 h | 5.187 ± 0.038 h | 10.3 h | 6.55 h
8 | MSGTLLAFDFGTKSIGVAVGQRITGTARPLPAIKAQDGTPDWNIIERLLKEWQPDEIIVGLPLNMDGTEQPLTARARKFANRIHGRFGVEVKLHDERLSTVEARSGLFEQGGYRALNKGKVDSASAVIILESYFEQGY [P0A8I1] | 4.82 ± 0.066 h | 3.57 ± 0.011 h | 4.27 ± 0.32 h | 8.63 ± 2.5 h | 4.88 h | 3.5663 ± 0.00095 h | 2.88 ± 0.18 h | 5.4 ± 0.77 h | 10.2 ± 0.33 h | 3.8577 ± 0.0028 h | 7.41 ± 2.2 h | 4.95 ± 0.11 h
